This is an account of results in the supplement of paper PMC7877785.

± gives the uncertainty stated by the source.

The nature of the series: self-splicing fitness, log relative to wild type (ln ratio); higher = more splicing; Tetrahymena group I intron in knt gene, E. coli kanamycin selection, DiMSum; sequences stand for … in CUCUCU…GGAGGGAAAAGUUAUCAGGCAUGCACCUGGUAGCUAGUCUUUAAACCAAUAGAUUGCAUCGGUUUAAAAGGCAAGACCGUCAAAUUGCGGGAAAGGGGUCAACAGCCGUUCAGUACCAAGUCUCAGGGGAAACUUUGAGAUGGCCUUGCAAAGGGUAUGGUAAUAAGCUGACGGACAUGGUCCUAACCACGCAGCCAAGUCCUAAGUCAACAGAUCUUCUGUUGAUAUGGAUGCAGUUCACAGACUAAAUGUCGGUCGGGGAAGAUGUAUUCUUCUCAUAAGAUAUAGUCGGACCUCUCCUUAAUGGGAGCUAGCGGAUGAAGUGAUGCAACACUGGAGCCGCUGGGAACUAAUUUGUAUGCGAAAGUAUAUUGAUUAGUUUUGGAGUACUCGUGGUCG
A digest of the protocol:
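Library with all eight P1ex-region intron nucleotides randomised, intron inside the knt kanamycin-resistance gene on pET-22b(+), in E. coli BL21(DE3). Cells grew overnight at 37°C or 30°C on LB agar with or without 25 μg/mL kanamycin (plus 100 μg/mL carbenicillin, 50 μM IPTG, 0.2% rhamnose), in six replicate transformations. Pooled colonies were amplicon-sequenced on Illumina HiSeq 2500. DiMSum fitness is the error-weighted combination of wild-type-normalised replicate fold changes, kanamycin versus none.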

For CUGAAGCAAUAUUACGUAGA, the “self-splicing fitness (ln)” value (30 °C) was -4.28 ± 0.34 and the “self-splicing fitness (ln)” value (37 °C) was -1.75 ± 0.27.

On to UCAAAGCAAUAUUACGAAGG, for which the “self-splicing fitness (ln)” value by setting is: (30 °C) -2.26 ± 0.1; (37 °C) -1.05 ± 0.13.

CCCCAGCAAUAUUACGCACC: the “self-splicing fitness (ln)” value was -2.46 ± 0.18 (30 °C) and -2.32 ± 0.24 (37 °C).

In the case of ACCUAGCAAUAUUACGUUUG, the “self-splicing fitness (ln)” value (30 °C) is -2.6 ± 0.08 and the “self-splicing fitness (ln)” value (37 °C) is -2.03 ± 0.11.

Consider GAUCAGCAAUAUUACGAUGU, for which the “self-splicing fitness (ln)” value (30 °C) was -0.363 ± 0.062 and the “self-splicing fitness (ln)” value (37 °C) stood at 0.0452 ± 0.077.

In the case of UUCAAGCAAUAUUACGAGCG, the “self-splicing fitness (ln)” value by setting is: (30 °C) -1.3 ± 0.087; (37 °C) -0.359 ± 0.099.

As for CAUAAGCAAUAUUACGGUAA, the “self-splicing fitness (ln)” value is -3.92 ± 0.46 (30 °C) and -2.77 ± 0.29 (37 °C).

As to CGGAAGCAAUAUUACGCCUG, the “self-splicing fitness (ln)” value is, setting by setting: (30 °C) -1 ± 0.098; (37 °C) -0.724 ± 0.12.

For AUUAAGCAAUAUUACGUUUG, the “self-splicing fitness (ln)” value (30 °C) was -3.11 ± 0.15 and the “self-splicing fitness (ln)” value (37 °C) was -1.56 ± 0.16.

CCUGAGCAAUAUUACGUAAA: the “self-splicing fitness (ln)” value (37 °C) was -2.49 ± 0.33.

Consider CAGCAGCAAUAUUACGGGAG, for which the “self-splicing fitness (ln)” value reads like this: (30 °C) -1.2 ± 0.061; (37 °C) -0.908 ± 0.082.

Turning to ACUAAGCAAUAUUACGACCA, the “self-splicing fitness (ln)” value was -0.124 ± 0.23 (30 °C) and 0.571 ± 0.2 (37 °C).

With CUGAAGCAAUAUUACGACAG, the “self-splicing fitness (ln)” value is, setting by setting: (30 °C) -0.755 ± 0.063; (37 °C) 0.511 ± 0.11.

On to GGACAGCAAUAUUACGUCGC, for which the “self-splicing fitness (ln)” value is, setting by setting: (30 °C) -3.12 ± 0.18; (37 °C) 0.343 ± 0.15.

UCGUAGCAAUAUUACGCGGA: the “self-splicing fitness (ln)” value is -2.54 ± 0.17 (30 °C) and -1.4 ± 0.12 (37 °C).

CGCGAGCAAUAUUACGCUAA: the “self-splicing fitness (ln)” value is, setting by setting: (30 °C) -2.95 ± 0.27; (37 °C) -2.55 ± 0.28.

UUUCAGCAAUAUUACGUGAA: the “self-splicing fitness (ln)” value is -0.761 ± 0.061 (30 °C) and -0.17 ± 0.088 (37 °C).

Take UAGAAGCAAUAUUACGUCGU: the “self-splicing fitness (ln)” value reads like this: (30 °C) -1.75 ± 0.097; (37 °C) -0.904 ± 0.1.

Regarding UUUUAGCAAUAUUACGCAUG, the “self-splicing fitness (ln)” value is, setting by setting: (30 °C) -1.3 ± 0.12; (37 °C) -0.672 ± 0.13.

In the case of CGUCAGCAAUAUUACGGUGG, the “self-splicing fitness (ln)” value was -1.26 ± 0.071 (30 °C) and -0.629 ± 0.096 (37 °C).

Turning to UACGAGCAAUAUUACGCAGA, the “self-splicing fitness (ln)” value (37 °C) is -2.33 ± 0.31.

For UUCUAGCAAUAUUACGGGCG, the “self-splicing fitness (ln)” value was -0.382 ± 0.12 (30 °C) and -0.891 ± 0.12 (37 °C).

With CCAAAGCAAUAUUACGGAGC, the “self-splicing fitness (ln)” value by setting is: (30 °C) -3.3 ± 0.15; (37 °C) -2.69 ± 0.19.

Take GGCGAGCAAUAUUACGUGUU: the “self-splicing fitness (ln)” value was -2.5 ± 0.12 (30 °C) and -1.39 ± 0.14 (37 °C).

Consider GGGUAGCAAUAUUACGUAGA, for which the “self-splicing fitness (ln)” value runs as follows: (30 °C) -1.89 ± 0.17; (37 °C) -0.619 ± 0.15.

In the case of AAAUAGCAAUAUUACGCUAG, the “self-splicing fitness (ln)” value (30 °C) was -1.55 ± 0.13 and the “self-splicing fitness (ln)” value (37 °C) was -1 ± 0.15.

For GUCCAGCAAUAUUACGUGGA, the “self-splicing fitness (ln)” value (30 °C) is -3.34 ± 0.21 and the “self-splicing fitness (ln)” value (37 °C) was -1.91 ± 0.19.

Consider GACGAGCAAUAUUACGAUUU, for which the “self-splicing fitness (ln)” value by setting is: (30 °C) -0.943 ± 0.085; (37 °C) -1.19 ± 0.098.

With GACGAGCAAUAUUACGUACU, the “self-splicing fitness (ln)” value is -1.64 ± 0.18 (30 °C) and -0.775 ± 0.14 (37 °C).

As for AUUAAGCAAUAUUACGAUAC, the “self-splicing fitness (ln)” value was -1.93 ± 0.11 (30 °C) and -0.885 ± 0.15 (37 °C).

AUUUAGCAAUAUUACGCCGU: the “self-splicing fitness (ln)” value by setting is: (30 °C) -1.2 ± 0.2; (37 °C) -1.44 ± 0.22.

GGCUAGCAAUAUUACGAGCU: the “self-splicing fitness (ln)” value reads like this: (30 °C) -2.9 ± 0.47; (37 °C) -1.65 ± 0.31.

As for AAAAAGCAAUAUUACGAGGC, the “self-splicing fitness (ln)” value was -4.09 ± 0.33 (30 °C) and -2.57 ± 0.32 (37 °C).

In the case of AGUUAGCAAUAUUACGUCGC, the “self-splicing fitness (ln)” value is, setting by setting: (30 °C) -2.96 ± 0.39; (37 °C) -0.924 ± 0.18.

As to ACUGAGCAAUAUUACGCAAG, the “self-splicing fitness (ln)” value reads like this: (30 °C) -2.68 ± 0.28; (37 °C) -1.54 ± 0.19.

For CAUCAGCAAUAUUACGUAUU, the “self-splicing fitness (ln)” value was -2.15 ± 0.097 (30 °C) and -1.65 ± 0.11 (37 °C).

In the case of UCCGAGCAAUAUUACGGUAU, the “self-splicing fitness (ln)” value (30 °C) is -1.95 ± 0.15 and the “self-splicing fitness (ln)” value (37 °C) is -2.41 ± 0.23.

GUAAAGCAAUAUUACGAACC: the “self-splicing fitness (ln)” value is, setting by setting: (30 °C) -2.39 ± 0.29; (37 °C) -2.8 ± 0.36.
